# Article PMC4836915 (Journal of cystic fibrosis : official journal of the …, 2015)
# T1: recombinant Porin D (P. aeruginosa PAO1, UniProt P32722 24-443)
# T1 sequence: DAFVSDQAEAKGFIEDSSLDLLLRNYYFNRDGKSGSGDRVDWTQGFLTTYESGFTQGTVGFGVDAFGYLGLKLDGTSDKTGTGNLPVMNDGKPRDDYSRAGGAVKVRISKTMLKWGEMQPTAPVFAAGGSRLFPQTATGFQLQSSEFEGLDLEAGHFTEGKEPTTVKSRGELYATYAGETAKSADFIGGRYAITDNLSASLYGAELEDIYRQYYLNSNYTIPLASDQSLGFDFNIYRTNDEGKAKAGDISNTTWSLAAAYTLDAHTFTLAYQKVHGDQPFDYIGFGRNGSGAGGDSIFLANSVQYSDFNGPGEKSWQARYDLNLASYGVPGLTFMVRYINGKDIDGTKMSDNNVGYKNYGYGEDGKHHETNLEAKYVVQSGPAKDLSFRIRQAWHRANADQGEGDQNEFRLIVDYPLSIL
# B1: recombinant vitronectin aa 80-396 (domain or fragment, human, UniProt P04004 80-396, looked up)
# chain: DGEEKNNATVHEQVGGPSLTSDLQAQSKGNPEQTPVLKPEEEAPAPEVGASKPEGIDSRPETLHPGRPQPPAEEELCSGKPFDAFTDLKNGSLFAFRGQYCYELDEKAVRPGYPKLIRDVWGIEGPIDAAFTRINCQGKTYLFKGSQYWRFEDGVLDPDYPRNISDGFDGIPDNVDAALALPAHSYSGRERVYFFKGKQYWEYQFQHQPSQEECEGSSLSAVFEHFAMMQRDSWEDIFELLFWGRTSAGTRQPQFISRDWHGVPGQVDAAMAGRIYISGMAPRPSLAKKQRFRHRNRKGYRSQRGHSRGRNQNSRRP
# Target: T1, recombinant Porin D
# Assay: BLI
binder,measurement,value
B1,Kd,3.6 nM
